Drawing on article PMC2880568, this text covers Kd for 1 molecule.

The experiment has as its target T1, EloBC (elongin B - elongin C heterodimer), Q15370.
T1 chain 1: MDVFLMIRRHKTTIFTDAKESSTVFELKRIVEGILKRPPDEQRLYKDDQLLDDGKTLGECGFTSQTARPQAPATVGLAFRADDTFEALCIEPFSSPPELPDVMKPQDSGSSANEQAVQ
T1 chain 2: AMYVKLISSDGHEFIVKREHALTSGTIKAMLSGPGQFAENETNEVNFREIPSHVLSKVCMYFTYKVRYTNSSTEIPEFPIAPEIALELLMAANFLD
Nature of the experiment: ITC.

Turning to HNKVGSLQYLALAAL (domain or fragment, modifications not checked) [Vif BC-box protein], the Kd stood at 2.2 µM.
